Results reported in patent EP2170953B1 (AC Immune S.A., dated 2015).
One block for each binder: values may come before it.

Experiments:
[1] = molecular target: Aβ1-42 library peptide 25; assay: peptide library ELISA, Ab 10 µg/ml
[2] = molecular target: Aβ1-42 library peptide 18; assay: peptide library ELISA, Ab 10 µg/ml
[3] = molecular target: Aβ1-42 library peptide 13; assay: peptide library ELISA, Ab 10 µg/ml
[4] = molecular target: Aβ1-42 library peptide 21; assay: peptide library ELISA, Ab 10 µg/ml
[5] = molecular target: Aβ1-42 library peptide 1; assay: peptide library ELISA, Ab 10 µg/ml
[6] = molecular target: Aβ1-42 library peptide 5; assay: peptide library ELISA, Ab 10 µg/ml
[7] = molecular target: Aβ1-42 library peptide 27; assay: peptide library ELISA, Ab 10 µg/ml
[8] = molecular target: Aβ1-42 library peptide 6; assay: peptide library ELISA, Ab 10 µg/ml
[9] = molecular target: Aβ1-42 library peptide 23; assay: peptide library ELISA, Ab 10 µg/ml
[10] = molecular target: Aβ1-42 library peptide 10; assay: peptide library ELISA, Ab 10 µg/ml
[11] = molecular target: Aβ1-42 library peptide 22; assay: peptide library ELISA, Ab 10 µg/ml
[12] = molecular target: Aβ1-42 library peptide 29; assay: peptide library ELISA, Ab 10 µg/ml
[13] = molecular target: Aβ1-42 library peptide 3; assay: peptide library ELISA, Ab 10 µg/ml
[14] = molecular target: Aβ1-42 library peptide 26; assay: peptide library ELISA, Ab 10 µg/ml
[15] = molecular target: Aβ1-42 library peptide 16; assay: peptide library ELISA, Ab 10 µg/ml
[16] = molecular target: Aβ1-42 library peptide 11; assay: peptide library ELISA, Ab 10 µg/ml
[17] = molecular target: Aβ1-42 library peptide 9; assay: peptide library ELISA, Ab 10 µg/ml
[18] = molecular target: Aβ1-42 library peptide 2; assay: peptide library ELISA, Ab 10 µg/ml
[19] = molecular target: Aβ1-42 library peptide 4; assay: peptide library ELISA, Ab 10 µg/ml
[20] = molecular target: Aβ1-42 library peptide 33; assay: peptide library ELISA, Ab 10 µg/ml
[21] = molecular target: Aβ1-42 library peptide 12; assay: peptide library ELISA, Ab 10 µg/ml
[22] = molecular target: Aβ1-42 library peptide 20; assay: peptide library ELISA, Ab 10 µg/ml
[23] = molecular target: Aβ1-42 library peptide 14; assay: peptide library ELISA, Ab 10 µg/ml
[24] = molecular target: Aβ1-42 library peptide 31; assay: peptide library ELISA, Ab 10 µg/ml
[25] = molecular target: Aβ1-42 library peptide 7; assay: peptide library ELISA, Ab 10 µg/ml
[26] = molecular target: Aβ1-42 library peptide 15; assay: peptide library ELISA, Ab 10 µg/ml
[27] = molecular target: Aβ1-42 library peptide 17; assay: peptide library ELISA, Ab 10 µg/ml
[28] = molecular target: Aβ1-42 library peptide 30; assay: peptide library ELISA, Ab 10 µg/ml
[29] = molecular target: Aβ1-42 library peptide 32; assay: peptide library ELISA, Ab 10 µg/ml
[30] = molecular target: Aβ1-42 library peptide 24; assay: peptide library ELISA, Ab 10 µg/ml
[31] = molecular target: Aβ1-42 library peptide 8; assay: peptide library ELISA, Ab 10 µg/ml
[32] = molecular target: Aβ1-42 library peptide 28; assay: peptide library ELISA, Ab 10 µg/ml
[33] = molecular target: Aβ1-42 library peptide 19; assay: peptide library ELISA, Ab 10 µg/ml
[34] = molecular target: Aβ1-42 (low-molecular weight, HFIP-treated, Th-T aggregation assay); assay: cell-based or functional assay
Aβ1-42 (low-molecular weight, HFIP-treated, Th-T aggregation assay), sequence (peptide, as listed by the source, form in doubt): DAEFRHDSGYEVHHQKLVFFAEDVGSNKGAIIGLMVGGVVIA

[35] = molecular target: pre-aggregated Aβ1-42 (Th-T disaggregation assay); assay: cell-based or functional assay
pre-aggregated Aβ1-42 (Th-T disaggregation assay), sequence (peptide, as listed by the source, form in doubt): as above

O.D. [1]: 0.11 O.D.
O.D. [2]: 0.11 O.D.
O.D. [3]: 0.17 O.D.
O.D. [4]: 0.1 O.D.
O.D. [5]: 0.1 O.D.
O.D. [6]: 0.11 O.D.
O.D. [7]: 0.13 O.D.
O.D. [8]: 0.11 O.D.
O.D. [9]: 0.11 O.D.
O.D. [10]: 0.13 O.D.
O.D. [11]: 0.1 O.D.
O.D. [12]: 0.2 O.D.
O.D. [13]: 0.12 O.D.
O.D. [14]: 0.12 O.D.
O.D. [15]: 0.14 O.D.
O.D. [16]: 0.11 O.D.
O.D. [17]: 0.11 O.D.
O.D. [18]: 0.1 O.D.
O.D. [19]: 0.11 O.D.
O.D. [20]: 0.11 O.D.
O.D. [21]: 0.24 O.D.
O.D. [22]: 0.1 O.D.
O.D. [23]: 0.16 O.D.
O.D. [24]: 0.12 O.D.
O.D. [25]: 0.11 O.D.
O.D. [26]: 0.14 O.D.
O.D. [27]: 0.13 O.D.
O.D. [28]: 0.11 O.D.
O.D. [29]: 0.12 O.D.
O.D. [30]: 0.1 O.D.
O.D. [31]: 0.11 O.D.
O.D. [32]: 0.12 O.D.
O.D. [33]: 0.1 O.D.
inhibition of Aβ1-42 aggregation (Th-T fluorescence), molar ratio 1:10 [34]: 69%
inhibition of Aβ1-42 aggregation (Th-T fluorescence), molar ratio 1:100 [34]: 34%
disaggregation of pre-aggregated Aβ1-42 (Th-T fluorescence), molar ratio 1:10 [35]: 52%
disaggregation of pre-aggregated Aβ1-42 (Th-T fluorescence), molar ratio 1:100 [35]: 22%
B1: ACI-11-Ab-9 (antibody, V domains shown)
VH: QVQLQQSDAELVKPGASVKISCKVSGYTFTDHTIHWMKQRPEQGLEWIGYIYPRDGSTKYNEKFKGKATLTADKSSSTAYMQLNSLTSEDSAVYFCARDYGYAFDYWGQGTTLTVSS
VL: QAVVTQESALTTSPGGTVILTCRSSTGAVTTSNYANWVQEKPDHLFTGLIGGTSNRAPGVPVRFSGSLIGDKAALTITGAQTEDDAMYFCALWYSTHYVFGGGTKVTVL
notes: also called FG1F9E4

O.D. [1]: 0.11 O.D.
O.D. [2]: 0.1 O.D.
O.D. [3]: 0.15 O.D.
O.D. [4]: 0.09 O.D.
O.D. [5]: 0.1 O.D.
O.D. [6]: 0.1 O.D.
O.D. [7]: 0.12 O.D.
O.D. [8]: 0.1 O.D.
O.D. [9]: 0.1 O.D.
O.D. [10]: 0.1 O.D.
O.D. [11]: 0.1 O.D.
O.D. [12]: 0.11 O.D.
O.D. [13]: 0.11 O.D.
O.D. [14]: 0.12 O.D.
O.D. [15]: 0.14 O.D.
O.D. [16]: 0.11 O.D.
O.D. [17]: 0.1 O.D.
O.D. [18]: 0.1 O.D.
O.D. [19]: 0.1 O.D.
O.D. [20]: 0.11 O.D.
O.D. [21]: 0.21 O.D.
O.D. [22]: 0.1 O.D.
O.D. [23]: 0.12 O.D.
O.D. [24]: 0.11 O.D.
O.D. [25]: 0.1 O.D.
O.D. [26]: 0.1 O.D.
O.D. [27]: 0.12 O.D.
O.D. [28]: 0.11 O.D.
O.D. [29]: 0.11 O.D.
O.D. [30]: 0.1 O.D.
O.D. [31]: 0.1 O.D.
O.D. [32]: 0.11 O.D.
O.D. [33]: 0.1 O.D.
inhibition of Aβ1-42 aggregation (Th-T fluorescence), molar ratio 1:10 [34]: 66%
inhibition of Aβ1-42 aggregation (Th-T fluorescence), molar ratio 1:100 [34]: 30%
disaggregation of pre-aggregated Aβ1-42 (Th-T fluorescence), molar ratio 1:10 [35]: 54%
disaggregation of pre-aggregated Aβ1-42 (Th-T fluorescence), molar ratio 1:100 [35]: 18%
B2: ACI-12-Ab-11 (antibody, V domains shown)
VH: B1 VH
VL: B1 VL
notes: also called FK2A6A6
